# B1: PHB (protein, UniProt P35232 2-272, looked up)
# Prohibitin 1: AAKVFESIGKFGLALAVAGGVVNSALYNVDAGHRAVIFDRFRGVQDIVVGEGTHFLIPWVQKPIIFDCRSRPRNVPVITGSKDLQNVNITLRILFRPVASQLPRIFTSIGEDYDERVLPSITTEILKSVVARFDAGELITQRELVSRQVSDDLTERAATFGLILDDVSLTHLTFGKEFTEAVEAKQVAQQEAERARFVVEKAEQQKKAAIISAEGDSKAAELIANSLATAGDGLIELRKLEAAEDIAYQLSRSRNITYLPAGQSVLLQLPQ
# B2: FBL (protein, UniProt P22087 1-321, looked up)
# rRNA 2'-O-methyltransferase …: MKPGFSPRGGGFGGRGGFGDRGGRGGRGGFGGGRGRGGGFRGRGRGGGGGGGGGGGGGRGGGGFHSGGNRGRGRGGKRGNQSGKNVMVEPHRHEGVFICRGKEDALVTKNLVPGESVYGEKRVSISEGDDKIEYRAWNPFRSKLAAAILGGVDQIHIKPGAKVLYLGAASGTTVSHVSDIVGPDGLVYAVEFSHRSGRDLINLAKKRTNIIPVIEDARHPHKYRMLIAMVDVIFADVAQPDQTRIVALNAHTFLRNGGHFVISIKANCIDSTASAEAVFASEVKKMQQENMKPQEQLTLEPYERDHAVVVGVYRPPPKVKN
# B3: LMNB1 (protein, UniProt P20700 2-583, looked up)
# Lamin-B1: ATATPVPPRMGSRAGGPTTPLSPTRLSRLQEKEELRELNDRLAVYIDKVRSLETENSALQLQVTEREEVRGRELTGLKALYETELADARRALDDTARERAKLQIELGKCKAEHDQLLLNYAKKESDLNGAQIKLREYEAALNSKDAALATALGDKKSLEGDLEDLKDQIAQLEASLAAAKKQLADETLLKVDLENRCQSLTEDLEFRKSMYEEEINETRRKHETRLVEVDSGRQIEYEYKLAQALHEMREQHDAQVRLYKEELEQTYHAKLENARLSSEMNTSTVNSAREELMESRMRIESLSSQLSNLQKESRACLERIQELEDLLAKEKDNSRRMLTDKEREMAEIRDQMQQQLNDYEQLLDVKLALDMEISAYRKLLEGEEERLKLSPSPSSRVTVSRASSSRSVRTTRGKRKRVDVEESEASSSVSISHSASATGNVCIEEIDVDGKFIRLKNTSEQDQPMGGWEMIRKIGDTSVSYKYTSRYVLKAGQTVTIWAANAGVTASPPTDLIWKNQNSWGTGEDVKVILKNSQGEEVAQRSTVFKTTIPEEEEEEEEAAGVVVEEELFHQQGTPRASNRSC
# B4: NEXN (protein, UniProt Q0ZGT2 1-675, looked up)
# Nexilin: MNDISQKAEILLSSSKPVPKTYVPKLGKGDVKDKFEAMQRAREERNQRRSRDEKQRRKEQYIREREWNRRKQEIKEMLASDDEEDVSSKVEKAYVPKLTGTVKGRFAEMEKQRQEEQRKRTEEERKRRIEQDMLEKRKIQRELAKRAEQIEDINNTGTESASEEGDDSLLITVVPVKSYKTSGKMKKNFEDLEKEREEKERIKYEEDKRIRYEEQRPSLKEAKCLSLVMDDEIESEAKKESLSPGKLKLTFEELERQRQENRKKQAEEEARKRLEEEKRAFEEARRQMVNEDEENQDTAKIFKGYRPGKLKLSFEEMERQRREDEKRKAEEEARRRIEEEKKAFAEARRNMVVDDDSPEMYKTISQEFLTPGKLEINFEELLKQKMEEEKRRTEEERKHKLEMEKQEFEQLRQEMGEEEEENETFGLSREYEELIKLKRSGSIQAKNLKSKFEKIGQLSEKEIQKKIEEERARRRAIDLEIKEREAENFHEEDDVDVRPARKSEAPFTHKVNMKARFEQMAKAREEEEQRRIEEQKLLRMQFEQREIDAALQKKREEEEEEEGSIMNGSTAEDEEQTRSGAPWFKKPLKNTSVVDSEPVRFTVKVTGEPKPEITWWFEGEILQDGEDYQYIERGETYCLYLPETFPEDGGEYMCKAVNNKGSAASTCILTIESKN
# B5: HNRNPA0 (protein, UniProt Q13151 1-305, looked up)
# Heterogeneous nuclear …: MENSQLCKLFIGGLNVQTSESGLRGHFEAFGTLTDCVVVVNPQTKRSRCFGFVTYSNVEEADAAMAASPHAVDGNTVELKRAVSREDSARPGAHAKVKKLFVGGLKGDVAEGDLIEHFSQFGTVEKAEIIADKQSGKKRGFGFVYFQNHDAADKAAVVKFHPIQGHRVEVKKAVPKEDIYSGGGGGGSRSSRGGRGGRGRGGGRDQNGLSKGGGGGYNSYGGYGGGGGGGYNAYGGGGGGSSYGGSDYGNGFGGFGSYSQHQSSYGPMKSGGGGGGGGSSWGGRSNSGPYRGGYGGGGGYGGSSF
# B6: KANK1 (protein, UniProt Q14678 1-1352, looked up)
# KN motif and ankyrin repeat …: MAHTTKVNGSASGKAGDILSGDQDKEQKDPYFVETPYGYQLDLDFLKYVDDIQKGNTIKRLNIQKRRKPSVPCPEPRTTSGQQGIWTSTESLSSSNSDDNKQCPNFLIARSQVTSTPISKPPPPLETSLPFLTIPENRQLPPPSPQLPKHNLHVTKTLMETRRRLEQERATMQMTPGEFRRPRLASFGGMGTTSSLPSFVGSGNHNPAKHQLQNGYQGNGDYGSYAPAAPTTSSMGSSIRHSPLSSGISTPVTNVSPMHLQHIREQMAIALKRLKELEEQVRTIPVLQVKISVLQEEKRQLVSQLKNQRAASQINVCGVRKRSYSAGNASQLEQLSRARRSGGELYIDYEEEEMETVEQSTQRIKEFRQLTADMQALEQKIQDSSCEASSELRENGECRSVAVGAEENMNDIVVYHRGSRSCKDAAVGTLVEMRNCGVSVTEAMLGVMTEADKEIELQQQTIESLKEKIYRLEVQLRETTHDREMTKLKQELQAAGSRKKVDKATMAQPLVFSKVVEAVVQTRDQMVGSHMDLVDTCVGTSVETNSVGISCQPECKNKVVGPELPMNWWIVKERVEMHDRCAGRSVEMCDKSVSVEVSVCETGSNTEESVNDLTLLKTNLNLKEVRSIGCGDCSVDVTVCSPKECASRGVNTEAVSQVEAAVMAVPRTADQDTSTDLEQVHQFTNTETATLIESCTNTCLSTLDKQTSTQTVETRTVAVGEGRVKDINSSTKTRSIGVGTLLSGHSGFDRPSAVKTKESGVGQININDNYLVGLKMRTIACGPPQLTVGLTASRRSVGVGDDPVGESLENPQPQAPLGMMTGLDHYIERIQKLLAEQQTLLAENYSELAEAFGEPHSQMGSLNSQLISTLSSINSVMKSASTEELRNPDFQKTSLGKITGNYLGYTCKCGGLQSGSPLSSQTSQPEQEVGTSEGKPISSLDAFPTQEGTLSPVNLTDDQIAAGLYACTNNESTLKSIMKKKDGNKDSNGAKKNLQFVGINGGYETTSSDDSSSDESSSSESDDECDVIEYPLEEEEEEEDEDTRGMAEGHHAVNIEGLKSARVEDEMQVQECEPEKVEIRERYELSEKMLSACNLLKNTINDPKALTSKDMRFCLNTLQHEWFRVSSQKSAIPAMVGDYIAAFEAISPDVLRYVINLADGNGNTALHYSVSHSNFEIVKLLLDADVCNVDHQNKAGYTPIMLAALAAVEAEKDMRIVEELFGCGDVNAKASQAGQTALMLAVSHGRIDMVKGLLACGADVNIQDDEGSTALMCASEHGHVEIVKLLLAQPGCNGHLEDNDGSTALSIALEAGHKDIAVLLYAHVNFAKAQSPGTPRLGRKTSPGPTHRGSFD
# B7: GAPVD1 (protein, UniProt Q14C86 1-1478, looked up)
# GTPase-activating protein and …: MVKLDIHTLAHHLKQERLYVNSEKQLIQRLNADVLKTAEKLYRTAWIAKQQRINLDRLIITSAEASPAECCQHAKILEDTQFVDGYKQLGFQETAYGEFLSRLRENPRLIASSLVAGEKLNQENTQSVIYTVFTSLYGNCIMQEDESYLLQVLRYLIEFELKESDNPRRLLRRGTCAFSILFKLFSEGLFSAKLFLTATLHEPIMQLLVEDEDHLETDPNKLIERFSPSQQEKLFGEKGSDRFRQKVQEMVESNEAKLVALVNKFIGYLKQNTYCFPHSLRWIVSQMYKTLSCVDRLEVGEVRAMCTDLLLACFICPAVVNPEQYGIISDAPINEVARFNLMQVGRLLQQLAMTGSEEGDPRTKSSLGKFDKSCVAAFLDVVIGGRAVETPPLSSVNLLEGLSRTVVYITYSQLITLVNFMKSVMSGDQLREDRMALDNLLANLPPAKPGKSSSLEMTPYNTPQLSPATTPANKKNRLPIATRSRSRTNMLMDLHMDHEGSSQETIQEVQPEEVLVISLGTGPQLTPGMMSENEVLNMQLSDGGQGDVPVDENKLHGKPDKTLRFSLCSDNLEGISEGPSNRSNSVSSLDLEGESVSELGAGPSGSNGVEALQLLEHEQATTQDNLDDKLRKFEIRDMMGLTDDRDISETVSETWSTDVLGSDFDPNIDEDRLQEIAGAAAENMLGSLLCLPGSGSVLLDPCTGSTISETTSEAWSVEVLPSDSEAPDLKQEERLQELESCSGLGSTSDDTDVREVSSRPSTPGLSVVSGISATSEDIPNKIEDLRSECSSDFGGKDSVTSPDMDEITHGAHQLTSPPSQSESLLAMFDPLSSHEGASAVVRPKVHYARPSHPPPDPPILEGAVGGNEARLPNFGSHVLTPAEMEAFKQRHSYPERLVRSRSSDIVSSVRRPMSDPSWNRRPGNEERELPPAAAIGATSLVAAPHSSSSSPSKDSSRGETEERKDSDDEKSDRNRPWWRKRFVSAMPKAPIPFRKKEKQEKDKDDLGPDRFSTLTDDPSPRLSAQAQVAEDILDKYRNAIKRTSPSDGAMANYESTGDNHDRDLSSKLLYHSDKEVMGDGESAHDSPRDEALQNISADDLPDSASQAAHPQDSAFSYRDAKKKLRLALCSADSVAFPVLTHSTRNGLPDHTDPEDNEIVCFLKVQIAEAINLQDKNLMAQLQETMRCVCRFDNRTCRKLLASIAEDYRKRAPYIAYLTRCRQGLQTTQAHLERLLQRVLRDKEVANRYFTTVCVRLLLESKEKKIREFIQDFQKLTAADDKTAQVEDFLQFLYGAMAQDVIWQNASEEQLQDAQLAIERSVMNRIFKLAFYPNQDGDILRDQVLHEHIQRLSKVVTANHRALQIPEVYLREAPWPSAQSEIRTISAYKTPRDKVQCILRMCSTIMNLLSLANEDSVPGADDFVPVLVFVLIKANPPCLLSTVQYISSFYASCLSGEESYWWMQFTAAVEFIKTIDDRK
# Test system: GFP-14-3-3β
# Test: GFP-14-3-3β co-IP with LC-MS/MS, untreated GFP-14-3-3β versus GFP control (14-3-3 interactome)
# Format: binding, human
# Conditions: log2 difference; pairwise comparison untreated vs GFP, label-free quantification, 3 replicates each
row,Molecule,"Difference (log2), untreated vs GFP"
1,B1,1.469

# Same assay, conditions: untreated vs GFP; LFQ intensities, replicates 1-3
row,Molecule,"Difference (log2), untreated vs GFP"
1,B2,2.48 log2
2,B3,2.359 log2
3,B4,0.832 log2
4,B5,3.698 log2
5,B6,3.839 log2
6,B7,4.189 log2

# Test system: GFP-14-3-3β and its binding proteins
# Test: GFP-14-3-3β co-IP with LC-MS/MS label-free quantification, untreated versus PP1c-treated
# Set-up: species or system human
# Conditions: PP1 vs untreated; LFQ intensities, replicates 1-3
row,Molecule,"Difference (log2), PP1 vs untreated"
1,B2,-1.367 log2
2,B3,-1.41 log2
3,B4,-1.398 log2
4,B5,-1.439 log2
5,B6,-1.352 log2
6,B7,-1.38 log2

# Same assay, conditions: log2 difference; pairwise comparison PP1 vs untreated, label-free quantification, 3 replicates each
row,Molecule,"Difference (log2), PP1 vs untreated"
1,B1,1.5807
